Like-named read-outs stand apart in the source and are kept apart here. Marks after values point to notes of the source that are not given here.
Columns and labels:
SULT1E1 [1] = test: SULT1E1 allozyme substrate kinetics (apparent Km, Vmax) with E2 and PAPS as cosubstrates; assay type: biochemical, human; settings: for Vmax, PAPS as Varied Substrate / Km / Vmax, E2 as Varied Substrate: mean ± SEM (n = 3); for apparent Km for PAPS, fold higher than the wild type enzyme: PAPS as substrate; for apparent Km for PAPS, fold higher than the wild type enzyme / apparent Km for estradiol, fold higher than the wild type enzyme: versus wild type; for apparent Km for estradiol, fold higher than the wild type enzyme: estradiol as substrate
From the text: Other biochemical properties of allozymes, such as apparent Km values, also can be altered relative to the reference SULT1E1. Apparent Km values can be calculated, for example, by using the method of Wilkinson with a computer program written by Cleland. Wilkinson (1961) Biochem. J. 80:324-332 and Cleland (1963) Nature 198:463-365. As described herein, the apparent Km values for PAPS varied more than 3-fold among the allozymes tested (Asp22Tyr, Ala32Val, and Pro253His).
Apparent Km values for each allozyme were determined with both cosubstrates. Initial experiments used 10-fold serial dilutions of E2 that ranged from 10^−3 to 10^−9 M. Apparent Km values were calculated by using the method of Wilkinson with a computer program written by Cleland (see, Wilkinson (1961) Biochem J 80:324-332; and Cleland (1963) Nature 198:463-365). Maximal activity for all allozymes was found at E2 concentrations near 100 nM. A second set of experiments was performed in the presence of 0.4 μM PAPS using eight concentrations of E2 that varied from 3.1 nM to 400 nM.

SULT1E1 [2] = test: Enzyme thermal stability (T50) of recombinant SULT1E1 allozymes; assay type: physicochemical, human; settings: for T50 value as compared to the wild-type enzyme: in words; for Thermal Stability T50: temperature resulting in 50% thermal inactivation, 15 minutes at 28° C. to 46° C., mean ± SEM (n = 3)
Method: Enzyme thermal stability was measured by diluting COS-1 cell supernatant preparations for each of the recombinant SULT1E1 allozymes and incubating them in a water bath for 15 minutes at temperatures ranging from 28° C. to 46° C. The samples were placed on ice immediately after incubation. Aliquots of the same supernatant preparations also were kept on ice as controls. Enzyme activity was measured in both heated and unheated samples, and blank values were determined for each temperature studied.

[3] = 50 nM E2, PAPS 2.7 nM to 150 nM
[4] = 50 nM E2, PAPS 2.7 nM to 150 nM, read-out: Apparent Km, PAPS as Varied Substrate
[5] = 0.4 μM PAPS, E2 3.1 nM to 400 nM
[6] = 0.4 μM PAPS, E2 3.1 nM to 400 nM, read-out: Apparent Km, E2 as Varied Substrate

B1: Ala32Val: SULT1E1 allozyme with valine in place of alanine at residue 32 (thymine at nucleotide 95) (protein, UniProt P49888 1-294, looked up, variant A32V)
Sulfotransferase 1E1: MNSELDYYEKFEEVHGILMYKDFVKYWDNVEVFQARPDDLVIATYPKSGTTWVSEIVYMIYKEGDVEKCKEDVIFNRIPFLECRKENLMNGVKQLDEMNSPRIVKTHLPPELLPASFWEKDCKIIYLCRNAKDVAVSFYYFFLMVAGHPNPGSFPEFVEKFMQGQVPYGSWYKHVKSWWEKGKSPRVLFLFYEDLKEDIRKEVIKLIHFLERKPSEELVDRIIHHTSFQEMKNNPSTNYTTLPDEIMNQKLSPFMRKGITGDWKNHFTVALNEKFDKHYEQQMKESTLKFRTEI
How did the “Vmax, PAPS as Varied Substrate” value (SULT1E1 [1]; [3]) turn out when B1 was run?
The value was 5.7 ± 0.1^a nmol/hr/β-galactosidase units.

And the Km (SULT1E1 [1]; [4])?
The Km was 0.065 ± 0.0042 µM.

And the “Vmax, E2 as Varied Substrate” value (SULT1E1 [1]; [5])?
Its value is 22.8 ± 6.6 nmol/hr/β-galactosidase units.

What about the Km (SULT1E1 [1]; [6]) of the same molecule?
Its Km is 0.044 ± 0.005 µM.

What about the “apparent Km for PAPS, fold higher than the wild type enzyme” value (SULT1E1 [1]) of the same molecule?
Its value is “comparable to those of the wild type SULT1E1 enzyme”.

What about the “apparent Km for estradiol, fold higher than the wild type enzyme” value (SULT1E1 [1]) of the same molecule?
Its value is “comparable to those of the wild type SULT1E1 enzyme”.

And the “T50 value as compared to the wild-type enzyme” value (SULT1E1 [2])?
The value was “reduced T50 values”.

And the “Thermal Stability T50” value (SULT1E1 [2])?
The value was 36.7 ± 1.2 °C.

B2: Pro253His: SULT1E1 allozyme with histidine in place of proline at residue 253 (adenine at nucleotide 758) (protein, UniProt P49888 1-294, looked up, variant P253H)
Sulfotransferase 1E1: MNSELDYYEKFEEVHGILMYKDFVKYWDNVEAFQARPDDLVIATYPKSGTTWVSEIVYMIYKEGDVEKCKEDVIFNRIPFLECRKENLMNGVKQLDEMNSPRIVKTHLPPELLPASFWEKDCKIIYLCRNAKDVAVSFYYFFLMVAGHPNPGSFPEFVEKFMQGQVPYGSWYKHVKSWWEKGKSPRVLFLFYEDLKEDIRKEVIKLIHFLERKPSEELVDRIIHHTSFQEMKNNPSTNYTTLPDEIMNQKLSHFMRKGITGDWKNHFTVALNEKFDKHYEQQMKESTLKFRTEI
Which “Vmax, PAPS as Varied Substrate” value (SULT1E1 [1]; [3]) does the source give for B2 here?
The value was 34.8 ± 0.2^a nmol/hr/β-galactosidase units.

And the Km (SULT1E1 [1]; [4])?
Its Km is 0.18 ± 0.0075 µM.

And the “Vmax, E2 as Varied Substrate” value (SULT1E1 [1]; [5])?
Its value is 58.6 ± 2.5^b nmol/hr/β-galactosidase units.

And the Km (SULT1E1 [1]; [6])?
Its Km is 0.097 ± 0.007 µM.

And the “apparent Km for PAPS, fold higher than the wild type enzyme” value (SULT1E1 [1])?
Its value is roughly 2.8 fold.

What about the “apparent Km for estradiol, fold higher than the wild type enzyme” value (SULT1E1 [1]) of the same molecule?
Its value is “approximately 2.5 fold”.

And the “Thermal Stability T50” value (SULT1E1 [2])?
The value was 38.4 ± 0.46 °C.

B3: Asp22Tyr: SULT1E1 allozyme with tyrosine in place of aspartic acid at residue 22 (thymine at nucleotide 64) (protein, UniProt P49888 1-294, looked up, variant D22Y)
Sulfotransferase 1E1: MNSELDYYEKFEEVHGILMYKYFVKYWDNVEAFQARPDDLVIATYPKSGTTWVSEIVYMIYKEGDVEKCKEDVIFNRIPFLECRKENLMNGVKQLDEMNSPRIVKTHLPPELLPASFWEKDCKIIYLCRNAKDVAVSFYYFFLMVAGHPNPGSFPEFVEKFMQGQVPYGSWYKHVKSWWEKGKSPRVLFLFYEDLKEDIRKEVIKLIHFLERKPSEELVDRIIHHTSFQEMKNNPSTNYTTLPDEIMNQKLSPFMRKGITGDWKNHFTVALNEKFDKHYEQQMKESTLKFRTEI
With B3 as the molecule, how does the “Vmax, PAPS as Varied Substrate” value (SULT1E1 [1]; [3]) read?
The value was 1.9 ± 0.1^a nmol/hr/β-galactosidase units.

What about the Km (SULT1E1 [1]; [4]) of the same molecule?
The Km was 0.24 ± 0.0092 µM.

What about the “Vmax, E2 as Varied Substrate” value (SULT1E1 [1]; [5]) of the same molecule?
The value was 4.7 ± 0.3^b nmol/hr/β-galactosidase units.

What about the Km (SULT1E1 [1]; [6]) of the same molecule?
The Km was 0.22 ± 0.03 µM.

And the “apparent Km for PAPS, fold higher than the wild type enzyme” value (SULT1E1 [1])?
The value was 3.3 fold.

And the “apparent Km for estradiol, fold higher than the wild type enzyme” value (SULT1E1 [1])?
The value was 6 fold.

What about the “T50 value as compared to the wild-type enzyme” value (SULT1E1 [2]) of the same molecule?
Its value is “reduced T50 values”.

What about the “Thermal Stability T50” value (SULT1E1 [2]) of the same molecule?
Its value is 35.0 ± 0.32^c ° C.

B4: Wild type: reference human SULT1E1 enzyme (SEQ ID NO:7, GenBank U08098), recombinantly expressed in COS-1 cells (protein, listed as Homo sapiens)
chain: MNSELDYYEKFEEVHGILMYKDFVKYWDNVEAFQARPDDLVIATYPKSGTTWVSEIVYMIYKEGDVEKCKEDVIFNRIPFLECRKENLMNGVKQLDEMNSPRIVKTHLPPELLPASFWEKDCKIIYLCRNAKDVAVSFYYFFLMVAGHPNPGSFPEFVEKFMQGQVPYGSWYKHVKSWWEKGKSPRVLFLFYEDLKEDIRKEVIKLIHFLERKPSEELVDRIIHHTSFQEMKNNPSTNYTTLPDEIMNQKLSPFMRKGITGDWKNHFTVALNEKFDKHYEQQMKESTLKFRTEI
With B4 as the molecule, how does the “Vmax, PAPS as Varied Substrate” value (SULT1E1 [1]; [3]) read?
The value was 27.2 ± 0.7^a nmol/hr/β-galactosidase units.

What about the Km (SULT1E1 [1]; [4]) of the same molecule?
Its Km is 0.056 ± 0.0029 µM.

What about the “Vmax, E2 as Varied Substrate” value (SULT1E1 [1]; [5]) of the same molecule?
Its value is 26.8 ± 4.4 nmol/hr/β-galactosidase units.

And the Km (SULT1E1 [1]; [6])?
Its Km is 0.03 ± 0.005 µM.

And the “Thermal Stability T50” value (SULT1E1 [2])?
Its value is 38.5 ± 0.92 °C.

From patent US7803921B2, “Sulfotransferase 1E1 sequence variants” (Mayo Foundation for Medical Education and Research, priority 2002, dated 2010)
